This is an account of results in patent US20030114404.

The first data set has as its system T1, VEGF165 (Homo sapiens), P15692-4.
T1 sequence: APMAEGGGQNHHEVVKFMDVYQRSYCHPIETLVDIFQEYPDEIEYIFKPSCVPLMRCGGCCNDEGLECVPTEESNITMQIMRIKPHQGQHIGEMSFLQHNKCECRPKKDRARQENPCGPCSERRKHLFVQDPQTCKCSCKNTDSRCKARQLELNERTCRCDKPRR
Nature of the data set: filter. As to conditions: 2'-F pyrimidines; 37 C.
By Kd is commonly meant the equilibrium constant for the complex coming apart. Sequence “GGGAGGACGAUGCGGAGAAUCAGUGAAUGCUUAUAAAUCUCGYGUCAGACGACUCGCCCGA [VT30.3]” came in with a Kd of 0.005 nM. “GGGAGGACGAUGCGGCGGYACUUUGGAAGAAUUGAAUUUCCCGCUCAGACGACUCGCCCGA [VP30.26]” yielded a Kd of 0.01 nM. On the same count and under the same terms, then “GGGAGGACGAUGCGGUAGGAAGAAUUGGAAGCGCAUUUUCCUCGYCAGACGACUCGCCCGA [VP30.22]”, with 0.02 nM; and “GGGAGGACGAUGCGGYGAACCGAUGGAAUUUUUGGACGCUCGCCUCAGACGACUCGCCCGA [VP30.2]”, with 0.01 nM. Still for that read-out and setting: then “GGGAGGACGAUGCGGAYCAACCGAUUGACGUUAUGGGACGCUGGUCAGACGACUCGCCCGA [VP30.5]”, with 0.008 nM.

For a further data set, the system named is T2, VEGF, P15692-4.
T2 sequence: T1 sequence
Nature of the data set: cell_activity. The following applies: NX278 (dialkylglycerol, 2'-NH2, 2'-OMe, PS) embedded in DSPC:cholesterol liposome; KSY-1 Kaposi's sarcoma cell proliferation; HUVEC IC50 about 300 nM (p159).
What is called IC50 is the concentration needed to halve the response being measured. “TTTTACCCUGAUGGUAGACGCCGGGGUGTTTTT [NX278-Liposome]” came in with an IC50 of 100 nM.
